Consider two molecules from patent publication US20190185550A1 (HEFEI LIFEON PHARMACEUTICAL, published 2019).

The target of assay [1] is T1, recombinant ED-B domain of human fibronectin with six histidine tags at the carboxyl terminal (human, UniProt P02751 1266-1356).
T1 construct: domain: ED-B; also called ED-B antigen; independent ED-B domain
Description: ELISA, Scatchard assay method (Beatty), coated ED-B. The method, then:
The Scatchard assay method (Beatty, Beatty et al. 1987) is used for the affinity determination. 0.1 μg/μl ED-B antigen is diluted according to four concentration gradients of 1:1, 1:2, 1:4 and 1:8, enveloped in the ELISA plate, stored overnight at 4° C., and then blocked with 4% skimmed milk. The single-chain antibody diluted according to the concentration gradient of 1:3 is added with the original concentration of the antibody being 10 μg/ml. The antibody reacts under a room temperature for 1 hr, then reacts for 1 hr under the addition of a horseradish peroxidase-labeled rabbit-anti-human IgG antibody, and is stained by adding tetramethyl benzidine (TMB). When an appropriate color depth is reached, the staining is terminated by using 2M H₂SO₄, and the OD450 optical absorption value is determined.
In general terms: An ELISA detects its analyte on a solid surface through an enzyme-linked reagent.

The target of assay [2] is T1, recombinant ED-B domain of human …. Put plainly: SPR, BIAcore3000, ED-B amine-coupled on the chip.
In assay [3] the target is FN(789), recombinant fibronectin fragment of domains 7, 8 and 9 without the ED-B domain, with 6xHis tags (human, UniProt P02751-1 1173-1446, limits assumed). Put plainly: ELISA on coated antigen, antibody B5 as primary antibody, HRP-labeled rabbit anti-human IgG as secondary antibody, OD450. The method, then:
The plasmid is expressed in E. coli and then purified through a Ni-chelating column. The aforementioned three proteins are used as antigens and are blocked with milk. Then an ELISA detection test is conducted by using the antibody B5 as a primary antibody and using the horseradish peroxidase-labeled rabbit-anti-human IgG antibody as the secondary antibody, with the test results being shown in FIG. 2.

T1 sequence (P02751 other isoform, or with tags, fused parts or gaps limits assumed): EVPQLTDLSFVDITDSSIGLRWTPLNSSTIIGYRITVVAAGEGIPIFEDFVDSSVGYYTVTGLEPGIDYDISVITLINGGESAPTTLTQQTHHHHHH
FN(789), recombinant fibronectin fragment of domains 7, 8 and 9 without the ED-B domain, with 6xHis tags, sequence (P02751 other isoform, or with tags, fused parts or gaps limits assumed): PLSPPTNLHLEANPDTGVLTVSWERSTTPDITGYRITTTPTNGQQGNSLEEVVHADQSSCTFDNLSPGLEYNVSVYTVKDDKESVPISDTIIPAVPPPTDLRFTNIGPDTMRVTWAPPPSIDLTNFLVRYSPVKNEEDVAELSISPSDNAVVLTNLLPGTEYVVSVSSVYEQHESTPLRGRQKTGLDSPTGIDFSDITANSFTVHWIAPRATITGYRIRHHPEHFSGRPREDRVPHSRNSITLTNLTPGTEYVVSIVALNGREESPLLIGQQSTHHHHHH

B1: antibody L19 (antibody, V domains shown)
VH: EVQLLESGGGLVQPGGSLRLSCAASGFTFSSFSMSWVRQAPGKGLEWVSSISGSSGTTYYADSVKGRFTISRDNSKNTLYLQMNSLRAEDTAVYYCAKPFPYFDYWGQGTLVTVSS
VL: EIVLTQSPGTLSLSPGERATLSCRASQSVSSSYLAWYQQKPGQAPRLLIYYASSRATGIPDRFSGSGSGTDFTLTISRLEPEDFAVYYCQQTGRIPPTFGQGTKVEIK
Usually Kd stands for the concentration at which binding is half-saturated. With B1, the Kd in assay [1] was determined as 6 nM; in assay [2], 0.4 nM.

B2: antibody B5 (humanized single-chain antibody against the ED-B domain, expressed as a fusion with the Fc of human IgG1) (Fc fusion)
scFv: EVQLLESGGGLVQPGGSLRLSCAASGFTFSSYAMSWVRQAPGKGLEWVSRISPSGSSTYYADSVKGRFTISRDNSKNTLYLQMNSLRAEDTAVYYCARHTAPLFDYWGQGTLVTVSSGGGGSGGGGSGGGGSSEIVLTQSPGTLSLSPGERATLSCRASQSVSSSYLAWYQQKPGQAPRLLIYKASNLATGIPDRFSGSGSGTDFTLTISRLEPEDFAVYYCQQGRHTPPTFGQGTKVEIK
notes: also called B5-IgG1Fc; single-chain antibody B5; not shown: Fc fragment of the constant region of human IgG1, fused in frame after the scFv (pCI-neo vector); limits and junction no
On to B2, for which the Kd in assay [1] was 1.8 nM. For the same molecule, in assay [3], the binding result is “no binding”.
